Assay: yeast display, Sf9 membrane polyspecificity reagent, FACS + sequencing; frameworks hold sequencing errors
Outline: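 Nanobodies came from a synthetic yeast display library in Saccharomyces cerevisiae BJ5465, induced with galactose for 36–48 hours and stained for 1 hour at 4 °C with 10% biotinylated, detergent-solubilized Sf9 membrane reagent. Cells were enriched on streptavidin microbeads and then FACS-sorted, with low and high (top ~1%) gates set on anti-HA fluorescence for expression and streptavidin fluorescence for reagent binding. Each polyreactivity label reflects the gate a clone came from. Genes were amplified by colony PCR, sequenced by MiSeq 2 × 250 and filtered by CDR length.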

Row | Sequence | polyreactivity (PSR sort gate)
1 | QVQLVESGGGLVQAGGSLRLSCAASGRTSYTYVMGWYRQAPGKERELVAAIRLSGGNTYYADPVKGRFTISRDNAKNTVYLQMNSLKPEDTAVYYCAAQYWRHRKAYGYWGQGTQVTVSS | high polyreactivity
2 | QVQLVESGGGLVQAGGSLRLSCAASGRTSYVYAMGWYRQAPGKERELVASITGSAGSTYYADSVKGRFTISRDNAKNTVYLQMNSLKPEDTAVYYCAVLRWRSWSSPGYYWGQGTQVTVSS | high polyreactivity
3 | QVQLVESGGGLVQAGGSLRLSCAASGRTVPGYVMGWYRQARGKERELVAAITSGGSTNYADSVKGRFTISRDNAKNTVYLQMNSLKPEDTAVNYCNADRNRWPWSVFTSEYWGQGTQVTVSS | low polyreactivity
4 | QVQLVESGGGLVQAGGSLRLSCAASGRTVSNYAMGWSRQAPGKERELVSAISTGGTSTYYADSVKGRFTISRDYAKNTVYLQMNSLKPEDTAVYYCIAVGGWVTHWLLREGDYWGQGTQVTVSS | low polyreactivity
5 | QVQLVESGGGLVQAGGSLRLSCAASGRTYRYYAMGWYRQAPGKERELVAAITASTGRTYYADSVKGRFTISRDNAKNSVYLQMNRLKPEDTAVYYCDARQSSYRYPGSYEYWGQGTQVTVSS | high polyreactivity
6 | QVQLVESGGGLVQAGGSLRLSCAASGRTYSQNAMGWYRQSPGKERELVAAIRRGGSTNYADSVKGRFTISRDNAKNTVYLQMNSLKPEDSAVYDCAADLRRNGWGFDYWGLGTQVTVSS | high polyreactivity
7 | QVQLVESGGGLVQAGGSLRLSCAASGRTYSYYAMGSYRQAPGKERELVAAITTSGGSTYYADSVKGRFTISRDNAKNTVYLQMNSLKPEDTAVYYCNALSSGVYLYDYWGQGTQVTVSS | high polyreactivity
8 | QVQLVESGGGLVQAGGSLRLSCAASGRTYTRYALGWYRQAPGKERELVAAISGGGGSTYYADSVKGRFTISRDNAKNTVYLQMNSLKPEDTAVYYCNAAARGSSFDYWGQGTQVTVSS | low polyreactivity
9 | QVQLVESGGGLVQAGGSLRLSCAASGRTYWYYVMGWYRQAPGTERELVAAISSSGGRTYYADSVKGRFTISRDNAKNTVYLQMNSLKPEDTAVYYCNVDAWYPYQGFLVGYYYWGQGTQVTVSS | low polyreactivity
10 | QVQLVESGGGLVQAGGSLRLSCAASGRVFSTNAMGWYRQAPGKERELVAGINSGGSTNYADSVKGRFTISRDNAKNTVSLQMNSLKPEDTAVYYCNATLRVESWYVHYGVDYDYWGQGTQVTVSS | low polyreactivity
11 | QVQLVESGGGLVQAGGSLRLSCAASGSFIVQNSMGWYRQAPAKERELVAANTRGGSTYYADSVKGRFTISRDNAKNTVYLQMNSLKPEDTAVYYCAAYWYYYLMDYWGQGTQVTVSS | low polyreactivity
12 | QVQLVESGGGLVQAGGSLRLSCAASGSIFAAYTMGWYRQAPGKERELVAAISVSTVSTYYADSVKGRFTISRDNAKNTVYLLMNSLKPEDTAVYYCNAVATDSYPEKDEHDSWGQGTQVTVSS | low polyreactivity
13 | QVQLVESGGGLVQAGGSLRLSCAASGSIFACYAMGRYRQAPGKERELVATITWSGGSTYYADSVKGRFTISRDNAKNTVYLQMNSLKPEDTAVYYCAAEVVGIWYDLWYQGDYWGQGTQVTVSS | low polyreactivity
14 | QVQLVESGGGLVQAGGSLRLSCAASGSIFAGNAMGWYRQAPGKEREFVAAITWSGGSTYYADSVKGRFTISRDNAKNTVYLQMNSLKPEDTAVYYCAARAYKRKTYYYWGQGTQVTVSS | high polyreactivity
15 | QVQLVESGGGLVQAGGSLRLSCAASGSIFAGNAMGWYRQSPGKERELVAAITWRSGRTYYADSVKGRFTISRDNAKNTVYLEMNSLKPEDTAVYYCARGRYGYTAPFRRWYFRYDYWGQGTQVTVSS | high polyreactivity
16 | QVQLVESGGGLVQAGGSLRLSCAASGSIFAGYAMGWYRQAPGKDRELVAAINWTGDSTYYADSVKGRFTNSRDNAKNTVYLQMNSLKQEDTAVYYCAAIRRQKGLWDYYYWGQGTQVTVSS | low polyreactivity
17 | QVQLVESGGGLVQAGGSLRLSCAASGSIFAGYAMGWYRQAPGKERELVAAISKSAGSTYYADSVKGRFTISRDNAKNTVYLQMNSLKAEDTAVYYCAARTFNTYPSYYYWGQGTQVTVSS | high polyreactivity
18 | QVQLVESGGGLVQAGGSLRLSCAASGSIFAGYAMGWYRQAPGKERELVAAISRRGGRTYYADSVKGRFTISRDNAKNTVYLQMNSLKPEDTAVYYCARRVDYISSKYGYWGQGTQVTVSS | high polyreactivity
19 | QVQLVESGGGLVQAGGSLRLSCAASGSIFAGYAMGWYRQAPGKERELVATITSGGSTNYADSVKGRFTISRDNAKNTVYLQMNSLKPEDTAVYYCAADVEDSIPSSYTGGEYDYWGQGTQGTVSS | low polyreactivity
20 | QVQLVESGGGLVQAGGSLRLSCAASGSIFAHNAMGWYRKAPGKERELVAAISSGGSTNYADSVKGRFTISRDNAKNTVYLQMISLKPEDTAVYYCAAVQYAPKWWGEYDYWGQGTQVTVSS | low polyreactivity
21 | QVQLVESGGGLVQAGGSLRLSCAASGSIFAHYTMGWYRQAPGKERELVAVISRSGARTYYADSVKGRFTISRDNAKNTVYLQMNSLKPEDTAVYYCAATWGSVQKGTYYYWGQGTQVTVSS | low polyreactivity
22 | QVQLVESGGGLVQAGGSLRLSCAASGSIFAINAMGLYRQAPGKERELVARISWSGGRTYYADSVKGRFTISRDNAKNSVYLQMNSLKPEVTAVYYCAARYYWGQVTQVTVSS | high polyreactivity

Row | Sequence | polyreactivity (PSR sort gate)
23 | QVQLVESGGGLVQAGGSLRLSCAASGSIFAINVMGWYRQAPGKEREFVAAISVRSGSTYYADSVKGRFTISRDNAKNTVYLQMNSLKPEDTAVYYCARDSYYIGRWLYYWGQGTQVTVSS | high polyreactivity
24 | QVQLVESGGGLVQAGGSLRLSCAASGSIFAIYVMGWYRQAPGKERELVAAITWSGGSTYYADSVKGRFTISRDNAKNTVDLQMNSLKPEDTAVYYCAARVLRVRTVTTTWGQGTQVTLSS | high polyreactivity
25 | QVQLVESGGGLVQAGGSLRLSCAASGSIFAKNAMGWYRPAPGTERELVAGIDFSGGSTYYADSVKGRFTISGDNAKNTVYLQMNSLKAEDTAVYYCAADWAYKYELDYWGQGNQVTVSS | low polyreactivity
26 | QVQLVESGGGLVQAGGSLRLSCAASGSIFAKNAMGWYRQAPGKERELVAAIDLNGGSTYYADSVKGRFTISRDNAKNTVYLQMNSLKPEDTAVYYCADYYGHSSVIRSSPEYDSWGQGTQVTVSS | low polyreactivity
27 | QVQLVESGGGLVQAGGSLRLSCAASGSIFAKYYARGWYRQAPVKERELVAAITSGGITNYADSVKGRFTISRDNAKNSVYLQMNSLKPEDTAVYYCAARKWLSAFDYWGQGTQVTVSS | low polyreactivity
28 | QVQLVESGGGLVQAGGSLRLSCAASGSIFALYTMGWYRQAPWKERELVAGIRTGRSTNYADSVKGRFTISRDNAKNTVYLQMNSLKPEDTAVYYDYWGQGTQVTVSS | low polyreactivity
29 | QVQLVESGGGLVQAGGSLRLSCAASGSIFANAMGWYRQAHGKERELVAAISFSGGRTFYADSVKGRFTISRDNAKNTVYLQMNSLKPEDTAVYYCAKGKISSRSGIYNYWGQGTQVTVSS | high polyreactivity
30 | QVQLVESGGGLVQAGGSLRLSCAASGSIFANNAMGWYRQAPGKERELVAAISSSGGSTYYADSVKGRFTISRDNAKNTVYLQMNSLKPEDTAVYYCAARFYYGRRYSTSYDYWGQGTQVTVSS | high polyreactivity
31 | QVQLVESGGGLVQAGGSLRLSCAASGSIFANYAMGWYRQAPGKERELVAAISKRGGSTNYADSVKGRFTISRDNAKNTVYLQMISLKPEDTAVYYCNVKPGSRRVLAAAYGYWGQGTKVTVSS | low polyreactivity
32 | QVQLVESGGGLVQAGGSLRLSCAASGSIFAPYAMGLYRQAPGKERELVAAIRSSGGSTHYADSVKGRFTISRDNAKNTVYLQMNSLKPEDTAVYYCARSYGWYRWAGYDYWGQGTQVTVSS | high polyreactivity
33 | QVQLVESGGGLVQAGGSLRLSCAASGSIFAPYAMGWYRQAPGKERELVAAIRWSGGRTYYADSVKGRFTISRDNAKNTVYLQMNSLKPEDTAVYYCNAVIHRLGKTYGTNRVDYWGQGTQVTVSS | high polyreactivity
34 | QVQLVESGGGLVQAGGSLRLSCAASGSIFAPYAMGWYRQAPGKERELVAAISRSGGSTYYADSVKGRFTISRDNAKNTVYLQMNSLKPEDTAVYYCAVRNGLRQYRLDYWGQGTQVTVSS | high polyreactivity
35 | QVQLVESGGGLVQAGGSLRLSCAASGSIFAPYAMGWYRQAPGKERELVATIRTTGDSTYYADSVKGRFTISRDNAKNTVYLQMNSLKPEDTAVYYCAAQQGVISRGNYWGQGTQVTVSS | low polyreactivity
36 | QVQLVESGGGLVQAGGSLRLSCAASGSIFARYAMGWYRQAPGKERELVAAISRNGGSTYYADSVKGRFTISRDNAKNTVYLQMNSLKPEDTAVYYCAATQVGHYRIYDYWGQGTQVTVSS | low polyreactivity
37 | QVQLVESGGGLVQAGGSLRLSCAASGSIFARYAMGWYRQAPGKERELVAAISSNSASTYYADSVKGRFTISRDNAKNTVYLQMNSLKPEDTAVYYCATAYRSYWLNDYWGQGTQVTVSS | low polyreactivity
38 | QVQLVESGGGLVQAGGSLRLSCAASGSIFASNAMGWYRQAPGKEREFVAAIRYSGGITYYADSVKGRFTISRDNAKNTVYLQMNSLKPEDTAVYSCAAYGWGIRWYSRFDYWGQGTPVTVSS | high polyreactivity
39 | QVQLVESGGGLVQAGGSLRLSCAASGSIFASNAMGWYRQAPGKEREFVAAITWRTDRTYYADSVKGRFTISRDNAKNTVFLQMNSLKPEDTAVYYCAADTWFYRFYYWGQCTQVTVSS | high polyreactivity
40 | QVQLVESGGGLVQAGGSLRLSCAASGSIFASYAMGWYRQAPGKERELVAAISRRAVRTYYADSVKGRFTISRDNAKNTVYLQMNSLKPEDTAVYYCNATRGQYVGRYYYWGQGTQVTVSS | high polyreactivity
41 | QVQLVESGGGLVQAGGSLRLSCAASGSIFASYDMGWYRQAPGKERELVARITFNGGSTYYADSVKGRFTISRDNAKNTVYLQMNSLKPEETAVYYCNADYPWEYDYWGLGTQVTVSS | low polyreactivity
42 | QVQLVESGGGLVQAGGSLRLSCAASGSIFATNAMGWYRQAPGKERELVASISSGGGSTYDADSVKGRFTLSRDNAKNTVYLQMNSLKPEDTAVYYCARRIGQGSRPYWLETWRYPYDYWGQGTQVTVSS | low polyreactivity
43 | QVQLVESGGGLVQAGGSLRLSCAASGSIFAVYAMGWYRQAPGKERELVAASSTDYADSVKGRFTISRDNAKNTVYLQMNSLKPEDTAVYYCAKVGFGIPGGFYFWGQGTQVTVSS | low polyreactivity
